What is called stoichiometry N is a count of units in the complex or per binding partner.

Experimental findings from PMC11643046 (bioRxiv, 2025) are described below.

This data set deals with the molecule itself. Kind of data set: SDS-PAGE.

Where a chain is given by its changes, count along the chain named. Names may count otherwise.

B1: Mycobacterium tuberculosis CrgA (Rv0011c), wild type, full length, with C-terminal His tag (natural protein)
chain: MMPKSKVRKKNDFTVSAVSRTPMKVKVGPSSVWFVSLFIGLMLIGLIWLMVFQLAAIGSQAPTALNWMAQLGPWNYAIAFAFMITGLLLTMRWH
As for B1, the “stoichiometry N” value was 2.

B2: CrgA G44V mutant (natural protein)
chain: B1 chain with G45V
In the case of B2, the binding result is listed as “binds”.

B3: CrgA N74A mutant (natural protein)
chain: B1 chain with N75A
For the protein B3, the binding result is given as “binds”.

B4: CrgA G39V mutant (natural protein)
chain: B1 chain with G40V
As to B4, the binding result is given as “binds”.

B5: CrgA A78V mutant (natural protein)
chain: B1 chain with A79V
For B5, the binding result was “binds”.
